Data as given in patent US20200030424A1 (INNOVATIVE CELLULAR THERAPEUTICS, published 2020).
Substitutions are numbered along the chain they refer to.

T1: Human CD19 expressed on cell surfaces (Raji cells; CD19-K562 cells) (human, UniProt P15391 20-556)
T1 construct: whole, on cells; also called antigen CD19; human CD19 antigen
T1 sequence (looked up): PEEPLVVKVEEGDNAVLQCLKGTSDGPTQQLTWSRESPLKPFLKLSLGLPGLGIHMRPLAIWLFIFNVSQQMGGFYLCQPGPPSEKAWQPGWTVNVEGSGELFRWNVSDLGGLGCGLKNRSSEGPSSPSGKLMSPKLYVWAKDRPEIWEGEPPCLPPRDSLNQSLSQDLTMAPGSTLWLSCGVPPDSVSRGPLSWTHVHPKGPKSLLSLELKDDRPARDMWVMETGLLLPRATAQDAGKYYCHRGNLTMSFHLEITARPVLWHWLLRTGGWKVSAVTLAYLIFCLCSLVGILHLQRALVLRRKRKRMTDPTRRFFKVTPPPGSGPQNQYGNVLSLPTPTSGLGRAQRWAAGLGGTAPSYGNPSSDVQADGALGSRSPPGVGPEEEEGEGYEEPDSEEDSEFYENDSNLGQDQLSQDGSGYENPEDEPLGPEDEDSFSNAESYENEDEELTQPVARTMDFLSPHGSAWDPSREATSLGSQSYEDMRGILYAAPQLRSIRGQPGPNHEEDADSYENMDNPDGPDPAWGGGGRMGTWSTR

B1: h2FMC63VH + L5F3 (antibody, V domains shown)
VH: EVQLVESGGGLVQPGGSLRLSCAASGVSLPDYGVSWVRQAPGKGLEWVSVIWGSETTYYNSALKSRFTISRDNAKNSLYLQMNSLRAEDTAVYYCAKHYYYGGSYAMDYWGQGTLVTVSS
VL: SYELTQPPSVSVAPGQTARITCGGNNLGDNSARWYQQKPGQAPVLVIYGNSNRPSGIPERFSGSNSGNTATLTISGTQAEDEADYYCQVTDTRSTSVVFGGGTKLTVL
notes: Humanized monoclonal antibody transiently expressed in HEK293 cells, with heavy chain from pTSEG1n-h2FMC63VH; also called L5F3 (humanized antibody)
B2: h2FMC63VH + L2D12 (antibody, V domains shown)
VH: B1 VH
VL: SYELTQPPSVSVAPGQTARITCGGNDLRAQYVHWYQQKPGQAPVLVMYDDSKRPSGIPERFSGSNSGNTATLTISGTQAEDEADYYCQSWDRTSEPKVFGGGTKLTVL
notes: Humanized monoclonal antibody transiently expressed in HEK293 cells, with heavy chain from pTSEG1n-h2FMC63VH; also called L2D12 (humanized antibody)
B3: h2FMC63VH + L2D8 (antibody, V domains shown)
VH: B1 VH
VL: DIQMTQSPSSLSASVGDRVTITCRASQSVGSFLAWYQQKPGKAPKLLIYGASSRESGVPSRFSGSGSGTDFTLTISSLQPEDFATYYCQQTYHNPETFGQGTKVEIK
notes: Humanized monoclonal antibody transiently expressed in HEK293 cells, with heavy chain from pTSEG1n-h2FMC63VH; also called L2D8 (humanized antibody)
B4: hFMC63 (antibody, V domains shown)
VH: QVQLQESGPGLVKPSETLSLTCTVSGVSLPDYGWSWIRQPPGKGLEWIGRIWGSETTYYNPSLKSRVTISVDTSKNQFSLKLSSVTAADTAVYYCAKHYYYGGSYAMDYWGQGTLVTVSS
VL: DIQMTQTTSSLSASLGDRVTISCRASQDISKYLNWYQQKPDGTVKLLIYHTSRLHSGVPSRFSGSGSGTDYSLTISNLEQEDIATYFCQQGNTLPYTFGGGTKLEIK
notes: Humanized heavy chain hFMC63VH in pTSEG1n-S (human heavy constant)
B5: h1FMC63 (antibody, V domains shown)
VH: B4 VH with W34V, R50V, P61S, S62A
VL: B4 VL
notes: Humanized heavy chain h1FMC63VH in pTSEG1n-S (human heavy constant)
B6: h2FMC63 (antibody, V domains shown)
VH: B1 VH
VL: B4 VL
notes: Humanized heavy chain h2FMC63VH in pTSEG1n-S (human heavy constant); also called third version of a humanized antibody

These binders were tested against T1, Human CD19 expressed on cell surfaces … (assay: flow cytometry on CD19-K562 cells).
In the case of B1, the “MFI(Geo)” value is reported as 147.
For B2, the “MFI(Geo)” value was 55.5.
B3 was tested, and the “MFI(Geo)” value was 125.

These binders were tested against T1, Human CD19 expressed on cell surfaces … (assay: flow cytometry on Raji cells).
Method: Raji cell is a strain derived from human B lymphoma cell line. Raji cells were purchased from Chinese Academy of Medical Sciences, Institute of Basic Medical Cell Resource Center. The surface of Raji cells expresses antigen CD19, and the anti-CD19 antibody can be used to analyze the binding capacity of recombinant humanized monoclonal antibodies. By flow cytometry (IFA), binding abilities of the four recombinant humanized antibodies were analyzed.
For B4, the “MFI (GeoMean)” value was 67.
For B5, the “MFI (GeoMean)” value was 186.
With B6 the “MFI (GeoMean)” value was 330.
